± gives the uncertainty stated by the source.

A short description of this data set: amyloid nucleation score (Sup35N fusion, yeast selection) (log enrichment); library NNK1; higher = more nucleation; inactive = no reads after selection. The essentials: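 Output and input plasmid inserts were sequenced by Illumina after psi-negative yeast carrying Sup35N fused to peptides of 20 random codons had been induced 24 hours with 100 μM copper sulfate and grown 7 days at 30°C on medium lacking adenine and uracil. The nucleation score is the DiMSum log enrichment of output over input reads, centred on the mode score of non-aggregating sequences. Sequences with under 100 input reads were excluded.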

The substance MSGFTESRCMGRMVALGPFD registered an amyloid nucleation score of 0.4 ± 1.4. In the case of RASHGAYDNFRGKKFMMRVM, the amyloid nucleation score was -1.01 ± 0.54. With DNTSCLW the entry was “inactive”; with RFVCQPNRWFHNKRGVGRET, 0.653 ± 0.64.

SCLIFVSHSTEGYYSTPTFP: the amyloid nucleation score came out at 2.26 ± 0.26. Regarding FRFGTA, the amyloid nucleation score is 0.39 ± 0.49. The figure for LANIYSSNVDISFFDPYCST is 4.35 ± 0.085; for INWRN it is -0.471 ± 0.34. The figure for RWCVVSEKTFCINYTRLSFA is 0.888 ± 0.23; for PSWSPKAIKFQHVLYFVKFL it is 0.236 ± 0.59. With LCMLWLKVKRHRDMRSIGIW the figure was -0.003 ± 0.42. In turn, FVVIEILDFSPFDHCFIILE had an amyloid nucleation score of 1.26 ± 0.48.

As for SWSLALL, the amyloid nucleation score was -0.278 ± 0.85. With TWAVSNLSRV the figure was -1.61 ± 0.59.

With GVCRDAVGGVTYDK, the amyloid nucleation score is -0.363 ± 1.5.

With SLKMEDFKKNSKMRMDFINH, the amyloid nucleation score was 1.85 ± 0.19. On to RVRLTFCCLMAVRSRSMISK, for which the amyloid nucleation score came out at 0.436 ± 1.2. VMFPGKQHT came in with an amyloid nucleation score of 0.012 ± 0.91. With DLQSSSDNLLGYMCFSCCKH, the amyloid nucleation score is -0.463 ± 0.98. AHRPGMFFRNYVVGDLS showed an amyloid nucleation score of -0.026 ± 0.48. The figure for RVYMFLARFGRESGWSVRQW is 0.169 ± 1; for HQLLTVL it is -0.997 ± 0.28. The figure for KCWPLLRITSVCVFAFTGER is 0.937 ± 0.58; for GLYKYYRSLILSLVSFNFS it is 1.18 ± 0.16. As for LIIRVWLKNQPDTLGKRRRE, the amyloid nucleation score was -0.415 ± 1.4. With YWCLRSLMV, the amyloid nucleation score result is “inactive”. The figure for VNVPHKTWIPDGDLRYYLTL is -0.891 ± 0.85. Substance TTFVSASSMRRYRCLSLGAC yielded an amyloid nucleation score of 0.659 ± 0.85. KVASSDMSDLSTH: the amyloid nucleation score entry was “inactive”. The figure for GAIDRGCVDLARTCSLGLTG is 0.508 ± 0.56. With ADVQWRHRTGISSSIVRSGA the figure was 0.822 ± 1. With RIMYSRLDYWLAYPVISERG the figure was -0.057 ± 1.4; with LAPISSASLQTFPVAIFRFR, 0.122 ± 0.43. For VDDICIIVANSAGRDEQMSM, the amyloid nucleation score amounted to 1.16 ± 0.56. With RATCVFCYTICFSWPSVWTF the figure was 3.5 ± 0.062.

AFNRSKQSIKAFSA yielded an amyloid nucleation score of -0.369 ± 1.2.

Regarding WLIVIGMGRLGIVIMLGGLK, the amyloid nucleation score came out at 0.723 ± 0.44. Turning to GYTLRPNERPKIRQV, the amyloid nucleation score was 0.244 ± 0.63. With IARFHTDSYHYRY the figure was -0.08 ± 1.1; with GALVYAFYAAS, 0.525 ± 0.89. PMVTSSCFRCTLLCSQFWQF gave an amyloid nucleation score of 0.444 ± 0.26. The figure for SVLTGNVTGDDGLCKSSIYA is 0.515 ± 0.34; for GWQGL it is -0.202 ± 0.53; for VSEIN it is 2.23 ± 0.57. YCKLDLPVTIEVKCSRGRMS: the amyloid nucleation score came to 5.17 ± 0.08.

Substance VNSGVNCMTVFVVVSLLSCG returned an amyloid nucleation score of 2.98 ± 0.11. In turn, MRTLWVSKSGIRG showed an amyloid nucleation score of -0.15 ± 0.72.

In the case of MSCPRGILGSAIWTYSIGHS, the amyloid nucleation score is -0.232 ± 1.7. The figure for WHILPQVWGIVHMIRSNLVC is 0.99 ± 0.64; for GYGWHLSANNPVSNIRCPRA it is -0.407 ± 0.42; for LGTCPYSPPEANN it is -0.604 ± 0.5.

Regarding NFELLPYLSLNWSHFFCSCF, the amyloid nucleation score came out at 6.56 ± 0.061. With WMYTMTGFEVNRTVNFYWTI the figure was -0.095 ± 0.29; with CTVDMEGFGFSRIVVDRGRS, -0.118 ± 0.6. With NFLPRTCMLVARFRRKTYLL, the amyloid nucleation score is 0.879 ± 0.54.

In the case of HVNFNKGRMGGADSAVRCWW, the amyloid nucleation score was -1.52 ± 1.8.

In turn, MLIFHTCA showed an amyloid nucleation score of 0.483 ± 1.1. As to RLAQYHMYIKFETGYN, the amyloid nucleation score is 1.23 ± 0.36. In turn, DYMDSCGYVDSATRYKVSEM showed an amyloid nucleation score of -0.241 ± 1.1. For the substance LFLWDVFGQLAFVRVGTICW, the amyloid nucleation score was 1.14 ± 0.56. With LRENPQLGVVTGLTLGSDLP the figure was 0.19 ± 0.5; with YPQMLVSVLRFMYY, 0.009 ± 0.26. LSTGWESNLEGCCENWGGLK yielded an amyloid nucleation score of -0.499 ± 0.29. The figure for VCELHLILM is 0.425 ± 0.3; for EFKTDPDYT it is 0.2 ± 0.53; for EWACFRGAYPAYSDLFR it is -0.327 ± 0.67. The figure for YIDIVGSSW is 4.83 ± 0.07; for LDDWRVMLVSANMHHVRC it is -0.642 ± 0.39. SGQPMIPGTCDNWNWRDYFT displayed an amyloid nucleation score of 6.04 ± 0.09. With TISSLNLTRLSLDIFDFQSQ the figure was 3.25 ± 0.21. In turn, AFIDDRAVTCCYQTVLLCER yielded an amyloid nucleation score of -0.341 ± 0.48. For the substance GLTPMRHN, the amyloid nucleation score was -1.01 ± 1.1. With GRVQGNFLINRVCRWWGVAG, the amyloid nucleation score came out at 0.182 ± 0.56. Regarding NYCFLNQDFCD, the amyloid nucleation score stood at 3.61 ± 0.2.

Turning to KTGCVGTS, the amyloid nucleation score result was “inactive”. LYYIRVFRNSI yielded an amyloid nucleation score of -0.751 ± 0.46.

In turn, NVTIVGS returned an amyloid nucleation score of 1.02 ± 0.46. Turning to SRYALLIYVLEDGCLAVLKP, the amyloid nucleation score came to 0.562 ± 1.2.

As to ISNMETGHLEYSLRLAPKYC, the amyloid nucleation score is -0.658 ± 0.82. The figure for GLYLDFGYSGCYGKKL is 5.67 ± 0.082; for PTRYRKLKRQAKATYIHSNP it is -0.552 ± 1.6. With TSLVVVSYMVTL the figure was 1.93 ± 0.42; with TIDKNNMESFITGFFGVRIL, 1.3 ± 0.4. The figure for MVDMLVKMGYRLLGRYISMR is 0.942 ± 0.69; for NCYSRDRSWGLDVVRYVVWW it is -0.329 ± 1.6.

For WGRRLSR, the amyloid nucleation score was found to be 0.122 ± 0.5. The entry for QRCYCGSCDWLRAMFVCWGL is “inactive”. For KTTLCM, the amyloid nucleation score is -0.088 ± 0.39. The figure for FSMGGYFLFLCNNFTLYHIS is 7.598 ± 0.07.

Turning to LGCYTLESLGEYDNSNNWLL, the amyloid nucleation score was determined as 0.932 ± 0.69.

Regarding VSDFGLGHGKQWRCRRQISL, the amyloid nucleation score was 0.685 ± 0.79. On to AGGVKSCTKRFN, for which the amyloid nucleation score was -0.232 ± 1.5. In the case of NGCLFILFCILLFKAQPSIA, the amyloid nucleation score came to 0.057 ± 0.78.

For RVAPKGNRARDHVDSSSECS, the amyloid nucleation score was found to be 2.14 ± 0.18.

ICFFGLDVNFTRLSTVTRFT yielded an amyloid nucleation score of 2.66 ± 0.16. With HVCSFLQAGAHWRRVAVCAG the figure was 0.124 ± 0.73; with KLSGFKFEVTCDGHEFWGHP, 1.08 ± 0.54. Regarding VLEWRGPF, the amyloid nucleation score is -0.239 ± 0.42. On to LLVSGVRSRKTQRWSFRACS, for which the amyloid nucleation score came out at 0.634 ± 0.7. With LNNRE the figure was 0.805 ± 0.78. The figure for HLRCCIKTLRVSHYGGPALR is -0.596 ± 0.37; for AEYCSNVGMSLYFLWSKPMQ it is 1.89 ± 0.18. The figure for YNLSGFDNGFSISLSCSDVA is 0.886 ± 0.74; for VITRFYGSVGLRIPAIAVVL it is 0.886 ± 0.58; for DRSRVLSSGETGYDIEVGQS it is -0.033 ± 0.45.

Regarding LDVLWTGSRSAAA, the amyloid nucleation score is -0.05 ± 0.38. As for YGLPFHVPACCAYLVVCKGR, the amyloid nucleation score is -0.018 ± 0.54. Turning to RNNSVLLLSSYANKRYSPAW, the amyloid nucleation score was -0.439 ± 0.78. With SSYVNRDCAFLWDD the figure was 2.75 ± 0.19. In the case of RKCEDGFWGKRDSATKGP, the amyloid nucleation score was determined as 0.034 ± 0.29.

In the case of IKILLNWHV, the amyloid nucleation score was -0.628 ± 1.7.

The substance ILDMMAKV showed an amyloid nucleation score of 1.56 ± 0.76. VNILDLKTHLRR: the amyloid nucleation score result is “inactive”. As for NNRHGYFNFCWWKEFLVKRE, the amyloid nucleation score result was “inactive”. Take DYEPLASDAREEDFCNARRG: the amyloid nucleation score is -0.677 ± 0.64.

As for AIIDDHSVCYNVLKRFSNFG, the amyloid nucleation score turned out to be 1.5 ± 0.66. The figure for RSCITESRRHIWRTGMVEKW is 0.716 ± 0.48; for SQEHCMVNTK it is 0.112 ± 0.59; for RINSGHIK it is 0.247 ± 0.33. As to IVRQYANLGRCCRTGVVYFQ, the amyloid nucleation score is 0.386 ± 0.63.

On to LMRHMFAWVDFIFSGSTQAC, for which the amyloid nucleation score stood at 1.14 ± 0.97.

In turn, CHNVAVPRVIVIGFDSGILY came in with an amyloid nucleation score of 0.341 ± 0.7.

NGSRYLANYSQS showed an amyloid nucleation score of 0.23 ± 0.36. As for SKDCNKWVRPRHGLYRFGGF, the amyloid nucleation score came to 0.071 ± 0.34.

In turn, IYNLDWSF displayed an amyloid nucleation score of -0.99 ± 1.3.

The substance VGSIVELSVHTTSDEKVSCR displayed an amyloid nucleation score of 0.316 ± 0.25. For the substance REYNSYLLGVGHNLQLRSYI, the amyloid nucleation score result was “inactive”. The figure for HESNMSMYYERYMLLSRNGS is 0.269 ± 0.23.

For the substance GVCVKGKRWDAEGVLRNAYT, the amyloid nucleation score was 1.41 ± 0.46. The substance GGIGDQVITRNVGRPREYQR gave an amyloid nucleation score of 1.34 ± 0.76. In turn, FYGEGNFRGKTYVFTVPVVK had an amyloid nucleation score of -1.21 ± 2.4. With QDFSVTPHGV the figure was 0.228 ± 0.62. Turning to IFKGGFTWYCCDKARGLKGR, the amyloid nucleation score amounted to 0.411 ± 0.34. Turning to NFFIWLMVFIGDFFDLVTSA, the amyloid nucleation score is -0.94 ± 0.59. The figure for TVRGSTRSKLSGASWQCWRA is -0.023 ± 0.21; for AFWFMCWGMTRTRYV it is 2.73 ± 0.11; for VLGPRWECMNRTYWRRTMVV it is -0.011 ± 0.31.

In turn, RNQRSSMWVGNRCYGGRCVW returned an amyloid nucleation score of 0.898 ± 0.93. With SSFQIRVSVLRRHCISGLIY the figure was 1.01 ± 0.79.

As for RSLPNPL, the amyloid nucleation score is -0.29 ± 0.42.

The record behind these values is the supplement of paper PMC12042874.
